Earlier results in paper PMC2854253.

Biological target: cTnI147-163 (Homo sapiens)
Experiment: NMR titration

cNTnC 1-89 (from UniProt P63316)
Kd: 154 µM
